Results taken from patent US20170081404A1.

Tests used:
[1] = molecular target: Biotin-GCN4 peptide (yeast); test: SPR (Biacore 3000, 25 C): Biotin-GCN4 peptide captured on immobilised streptavidin (CM5 chip), Fab-scFv injected as analyte, 1:1 binding model
[2] = molecular target: Biotin-GCN4 peptide (yeast); test: SPR, Biacore 3000, 25 C; Biotin-GCN4 peptide captured on immobilised streptavidin (CM5), Fab-scFv injected in three-fold dilutions from 30 nM, 1:1 binding model

B1: Fab A-scFv '52SR4' (protein, part only; not given: Fab A heavy and light chains, not shown: another chain or arm of the molecule; a dimerising Fc or GST; small tags and cut ends)
scFv: DAVVTQESALTSSPGETVTLTCRSSTGAVTTSNYASWVQEKPDHLFTGLIGGTNNRAPGVPARFSGSLIGDKAALTITGAQTEDEAIYFCVLWYSDHWVFGCGTKLTVLGGGGGSGGGGSGGGGSGGGGSDVQLQQSGPGLVAPSQSLSITCTVSGFLLTDYGVNWVRQSPGKCLEWLGVIWGDGITDYNSALKSRLSVTKDNSKSQVFLKMNSLQSGDSARYYCVTGLFDYWGQGTTLTVSSAAAHHHHHHEQKLISEEDL
koff [1]: 0.00027 s⁻¹ | kon [1]: 510000 M⁻¹ s⁻¹ | Kd [2]: 516 pM
